Reference: paper PMC7357845

Target: rabbit skeletal muscle G-actin (rabbit) (UniProt P68135)
Test: SPR

Substance	Kd
His-tagged ZASP-S WT (N21 His-tag) (from UniProt O75112-6 1-283) (natural protein)	2 nM
untagged ZASP-S WT (from UniProt O75112-6 1-283) (natural protein)	62 nM
